We go through 1 molecule from publication PMC12440827 (Nature structural & molecular biology, 2025).

In the test the target is FIP200 N-terminal domain (1-640), untagged, of the ULK1C core (human, UniProt Q8TDY2 1-640). The experiment in a line: cryo-EM structure; ULK1C (2:1:1) core, SEC peak in 25 mM HEPES pH 7.5, 150 mM NaCl, 1 mM MgCl2, 1 mM TCEP; graphene grids, 300 kV Titan Krios. The note with it: both partners purified.
Sequence of FIP200 N-terminal domain (1-640), untagged, of the ULK1C core (Q8TDY2 1-640): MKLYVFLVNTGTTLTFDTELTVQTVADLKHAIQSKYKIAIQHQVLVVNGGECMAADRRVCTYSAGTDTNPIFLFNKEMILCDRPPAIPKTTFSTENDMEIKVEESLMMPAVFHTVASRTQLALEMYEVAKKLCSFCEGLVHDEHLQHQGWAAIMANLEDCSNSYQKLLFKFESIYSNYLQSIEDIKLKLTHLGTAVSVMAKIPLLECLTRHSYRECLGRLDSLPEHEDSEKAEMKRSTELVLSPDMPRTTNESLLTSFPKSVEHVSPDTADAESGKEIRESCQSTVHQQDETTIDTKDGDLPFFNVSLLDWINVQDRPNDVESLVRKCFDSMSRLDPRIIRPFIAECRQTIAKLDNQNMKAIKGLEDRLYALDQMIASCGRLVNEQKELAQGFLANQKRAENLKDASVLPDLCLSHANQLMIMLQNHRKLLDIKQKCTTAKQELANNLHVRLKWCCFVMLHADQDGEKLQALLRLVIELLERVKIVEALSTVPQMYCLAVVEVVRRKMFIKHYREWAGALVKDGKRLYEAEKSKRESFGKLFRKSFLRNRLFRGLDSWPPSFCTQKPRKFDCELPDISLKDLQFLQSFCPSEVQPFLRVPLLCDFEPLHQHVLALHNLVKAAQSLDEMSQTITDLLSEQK

B1: ATG13 (363-517), the ATG13 part of the ATG13-ULK1 fusion chain (domain or fragment, human, UniProt O75143 363-517, looked up)
chain: HDVLETIFVRKVGAFVNKPINQVTLTSLDIPFAMFAPKNLELEDTDPMVNPPDSPETESPLQGSLHSDGSSGGSSGNTHDDFVMIDFKPAFSKDDILPMDLGTFYREFQNPPQLSSLSIDIGAQSMAEDLDSLPEKLAVHEKNVREFDAFVETLQ
As to B1, the binding result was “binds”.
